What was measured:
Assay type in all cases: in vivo
[1] = test system: Arabidopsis thaliana T1 plants; assay: sulfentrazone tolerance of transgenic Arabidopsis thaliana T1 plants (spray, grade of pesticide damage); details: 7 DAT, number of plants of 24 per genotype, grades
In short: (§1)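 Read-out: injury grade at 7 DAT from injured vs total leaf area (0 = as water-sprayed; 1 = <10%; 3 = 100%); grades 0–1 were rated highly resistant. Plants were 18-day-old glufosinate-selected PPO-transgenic T1 lines plus controls, n = 24 per genotype. Doses: saflufenacil 25/100, sulfentrazone 450/900, flumioxazin 60/240, oxyfluorfen 180/720 g ai/ha.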

[2] = test system: Arabidopsis thaliana T1 plants; assay: saflufenacil tolerance of transgenic Arabidopsis thaliana T1 plants (spray, grade of pesticide damage); details: 7 DAT, number of plants of 24 per genotype, grades
In short: as §1

[3] = test system: transgenic soybean plants; assay: flumioxazin tolerance of transgenic soybean plants (spray, grade of pesticide damage); details: for The grade of pesticide damage/plant: grade 0 / The grade of pesticide damage/plant: grade 1 / The grade of pesticide damage/plant: grade 2 / The grade of pesticide damage/plant: grade 3: 7 DAT, number of plants of 16 per genotype, grades
[4] = test system: transgenic soybean plants; assay: saflufenacil tolerance of transgenic soybean plants (spray, grade of pesticide damage); set-up: key to damage levels rated at grade: grade 0 means that the growth status of plants is essentially consistent with those sprayed with the blank solvent (water); grade 1 means that the average of the damage levels of plants is less than 10%; grade 2 means that the average of the damage levels of plants is greater than 100%; grade 3 means that the average of the damage levels of plants is 100%; details: for The grade of pesticide damage/plant: grade 0 / The grade of pesticide damage/plant: grade 1 / The grade of pesticide damage/plant: grade 2 / The grade of pesticide damage/plant: grade 3: 7 DAT, number of plants of 16 per genotype, grades
[5] = test system: Arabidopsis thaliana T1 plants; assay: oxyfluorfen tolerance of transgenic Arabidopsis thaliana T1 plants (spray, grade of pesticide damage); details: 7 DAT, number of plants of 24 per genotype, grades
In short: as §1

[6] = test system: Arabidopsis thaliana T1 plants; assay: flumioxazin tolerance of transgenic Arabidopsis thaliana T1 plants (spray, grade of pesticide damage); details: 7 DAT, number of plants of 24 per genotype, grades
In short: as §1

[7] = test system: transgenic soybean plants; assay: oxyfluorfen tolerance of transgenic soybean plants (spray, grade of pesticide damage); details: for The grade of pesticide damage/plant: grade 0 / The grade of pesticide damage/plant: grade 1 / The grade of pesticide damage/plant: grade 2 / The grade of pesticide damage/plant: grade 3: 7 DAT, number of plants of 16 per genotype, grades; for tolerance to oxyfluorfen: soybean

B1: PPO1A: nucleotide sequence encoding microbial protoporphyrinogen oxidase PPO1 (SEQ ID NO:1), Arabidopsis thaliana/soybean common codon usage bias (nucleic acid)
DNA: ATGAAGGCTTTGGTACTCTACAGCACAAGAGACGGTCAGACACACGCGATCGCGTCGTACATTGCTAATTGCATGAAAGAGAAGTATGAGTGTGACGTTATTGATCTTCTTCATGCTCAGCATGTTACATTATCACGGTATGATAAGGTTCTTGTAGGAGCTTCTATACGATATGGACATTTCAATGCTGTGTTGGACAAATTTGTGAAGCAAAACATCCAACAACTAAACTCAATGCCTTCTGCTTTCTTTGCTGTTAATTTGACTGCCAGGAAACCTGAGAAACGTACTCCTCAGACCAATTCTTATGTTAGGAAGTTTCTTCTGGGGACACCATGGAAACCAGCAATGTGTGGCGTGTTTGCAGGAGCATTGAGGTATCCACGTTACAGATGGGTTGATAAAGTGATGATTCAGCTCATAATGAGAATGACTGGTGGTGAAACAGATACAAGCAAAGAAGTTGAGTATACTGATTGGGAACAAGTCAAAAAGTTCGCAGAAGATTTTGGAAAGCTAAGTTACAAGAAAACCCTCTGA
modifications: PPO1A Nucleotide Sequence
The grade of pesticide: grade 0 ([1]; sulfentrazone 450 g ai/ha (1×)): 24
The grade of pesticide: grade 1 ([1]; sulfentrazone 450 g ai/ha (1×)): 0
The grade of pesticide: grade 2 ([1]; sulfentrazone 450 g ai/ha (1×)): 0
The grade of pesticide: grade 3 ([1]; sulfentrazone 450 g ai/ha (1×)): 0
The grade of pesticide: grade 0 ([1]; sulfentrazone 900 g ai/ha (2×)): 20
The grade of pesticide: grade 1 ([1]; sulfentrazone 900 g ai/ha (2×)): 4
The grade of pesticide: grade 2 ([1]; sulfentrazone 900 g ai/ha (2×)): 0
The grade of pesticide: grade 3 ([1]; sulfentrazone 900 g ai/ha (2×)): 0
The grade of pesticide damage/plant: grade 0 ([2]; saflufenacil 25 g ai/ha (1×)): 24 plant
The grade of pesticide damage/plant: grade 1 ([2]; saflufenacil 25 g ai/ha (1×)): 0 plant
The grade of pesticide damage/plant: grade 2 ([2]; saflufenacil 25 g ai/ha (1×)): 0 plant
The grade of pesticide damage/plant: grade 3 ([2]; saflufenacil 25 g ai/ha (1×)): 0 plant
The grade of pesticide damage/plant: grade 0 ([2]; saflufenacil 100 g ai/ha (4×)): 4 plant
The grade of pesticide damage/plant: grade 1 ([2]; saflufenacil 100 g ai/ha (4×)): 20 plant
The grade of pesticide damage/plant: grade 2 ([2]; saflufenacil 100 g ai/ha (4×)): 0 plant
The grade of pesticide damage/plant: grade 3 ([2]; saflufenacil 100 g ai/ha (4×)): 0 plant
The grade of pesticide damage/plant: grade 0 ([3]; flumioxazin 120 g ai/ha (2×)): 16 plant
The grade of pesticide damage/plant: grade 1 ([3]; flumioxazin 120 g ai/ha (2×)): 0 plant
The grade of pesticide damage/plant: grade 2 ([3]; flumioxazin 120 g ai/ha (2×)): 0 plant
The grade of pesticide damage/plant: grade 3 ([3]; flumioxazin 120 g ai/ha (2×)): 0 plant
The grade of pesticide damage/plant: grade 0 ([3]; flumioxazin 240 g ai/ha (4×)): 16 plant
The grade of pesticide damage/plant: grade 1 ([3]; flumioxazin 240 g ai/ha (4×)): 0 plant
The grade of pesticide damage/plant: grade 2 ([3]; flumioxazin 240 g ai/ha (4×)): 0 plant
The grade of pesticide damage/plant: grade 3 ([3]; flumioxazin 240 g ai/ha (4×)): 0 plant
tolerance to flumioxazin ([3]; soybean, flumioxazin at different concentrations (120 and 240 g ai/ha)): high-resistant tolerance
The grade of pesticide damage/plant: grade 0 ([4]; saflufenacil 50 g ai/ha (2×)): 16 plant
The grade of pesticide damage/plant: grade 1 ([4]; saflufenacil 50 g ai/ha (2×)): 0 plant
The grade of pesticide damage/plant: grade 2 ([4]; saflufenacil 50 g ai/ha (2×)): 0 plant
The grade of pesticide damage/plant: grade 3 ([4]; saflufenacil 50 g ai/ha (2×)): 0 plant
The grade of pesticide damage/plant: grade 0 ([4]; saflufenacil 100 g ai/ha (4×)): 16 plant
The grade of pesticide damage/plant: grade 1 ([4]; saflufenacil 100 g ai/ha (4×)): 0 plant
The grade of pesticide damage/plant: grade 2 ([4]; saflufenacil 100 g ai/ha (4×)): 0 plant
The grade of pesticide damage/plant: grade 3 ([4]; saflufenacil 100 g ai/ha (4×)): 0 plant
tolerance to saflufenacil ([4]; soybean, saflufenacil at four-fold field concentration (100 g ai/ha)): high-resistant tolerance
damage levels rated at grade ([4]; soybean, saflufenacil at two-fold field concentration (50 g ai/ha)): 0
tolerance to saflufenacil ([4]; soybean, saflufenacil, compared with the control vector and CK): different extents of tolerance
The grade of pesticide damage/plant: grade 0 ([5]; oxyfluorfen 180 g ai/ha (1×)): 24 plant
The grade of pesticide damage/plant: grade 1 ([5]; oxyfluorfen 180 g ai/ha (1×)): 0 plant
The grade of pesticide damage/plant: grade 2 ([5]; oxyfluorfen 180 g ai/ha (1×)): 0 plant
The grade of pesticide damage/plant: grade 3 ([5]; oxyfluorfen 180 g ai/ha (1×)): 0 plant
The grade of pesticide damage/plant: grade 0 ([5]; oxyfluorfen 720 g ai/ha (4×)): 19 plant
The grade of pesticide damage/plant: grade 1 ([5]; oxyfluorfen 720 g ai/ha (4×)): 5 plant
The grade of pesticide damage/plant: grade 2 ([5]; oxyfluorfen 720 g ai/ha (4×)): 0 plant
The grade of pesticide damage/plant: grade 3 ([5]; oxyfluorfen 720 g ai/ha (4×)): 0 plant
The grade of pesticide damage/plant: grade 0 ([6]; flumioxazin 60 g ai/ha (1×)): 24 plant
The grade of pesticide damage/plant: grade 1 ([6]; flumioxazin 60 g ai/ha (1×)): 0 plant
The grade of pesticide damage/plant: grade 2 ([6]; flumioxazin 60 g ai/ha (1×)): 0 plant
The grade of pesticide damage/plant: grade 3 ([6]; flumioxazin 60 g ai/ha (1×)): 0 plant
The grade of pesticide damage/plant: grade 0 ([6]; flumioxazin 240 g ai/ha (4×)): 23 plant
The grade of pesticide damage/plant: grade 1 ([6]; flumioxazin 240 g ai/ha (4×)): 1 plant
The grade of pesticide damage/plant: grade 2 ([6]; flumioxazin 240 g ai/ha (4×)): 0 plant
The grade of pesticide damage/plant: grade 3 ([6]; flumioxazin 240 g ai/ha (4×)): 0 plant
The grade of pesticide damage/plant: grade 0 ([7]; oxyfluorfen 360 g ai/ha (2×)): 16 plant
The grade of pesticide damage/plant: grade 1 ([7]; oxyfluorfen 360 g ai/ha (2×)): 0 plant
The grade of pesticide damage/plant: grade 2 ([7]; oxyfluorfen 360 g ai/ha (2×)): 0 plant
The grade of pesticide damage/plant: grade 3 ([7]; oxyfluorfen 360 g ai/ha (2×)): 0 plant
The grade of pesticide damage/plant: grade 0 ([7]; oxyfluorfen 720 g ai/ha (4×)): 16 plant
The grade of pesticide damage/plant: grade 1 ([7]; oxyfluorfen 720 g ai/ha (4×)): 0 plant
The grade of pesticide damage/plant: grade 2 ([7]; oxyfluorfen 720 g ai/ha (4×)): 0 plant
The grade of pesticide damage/plant: grade 3 ([7]; oxyfluorfen 720 g ai/ha (4×)): 0 plant
tolerance to oxyfluorfen ([7]; oxyfluorfen at four-fold field concentration (720 g ai/ha)): high-resistant tolerance
tolerance to oxyfluorfen ([7]; oxyfluorfen at two-fold field concentration (360 g ai/ha)): high-resistant tolerance
